According to paper PMC12123872:

What was measured:
RAD21 = biological target: T1, RAD21 (UniProt O60216 1-631); test: EMSA
T1 sequence: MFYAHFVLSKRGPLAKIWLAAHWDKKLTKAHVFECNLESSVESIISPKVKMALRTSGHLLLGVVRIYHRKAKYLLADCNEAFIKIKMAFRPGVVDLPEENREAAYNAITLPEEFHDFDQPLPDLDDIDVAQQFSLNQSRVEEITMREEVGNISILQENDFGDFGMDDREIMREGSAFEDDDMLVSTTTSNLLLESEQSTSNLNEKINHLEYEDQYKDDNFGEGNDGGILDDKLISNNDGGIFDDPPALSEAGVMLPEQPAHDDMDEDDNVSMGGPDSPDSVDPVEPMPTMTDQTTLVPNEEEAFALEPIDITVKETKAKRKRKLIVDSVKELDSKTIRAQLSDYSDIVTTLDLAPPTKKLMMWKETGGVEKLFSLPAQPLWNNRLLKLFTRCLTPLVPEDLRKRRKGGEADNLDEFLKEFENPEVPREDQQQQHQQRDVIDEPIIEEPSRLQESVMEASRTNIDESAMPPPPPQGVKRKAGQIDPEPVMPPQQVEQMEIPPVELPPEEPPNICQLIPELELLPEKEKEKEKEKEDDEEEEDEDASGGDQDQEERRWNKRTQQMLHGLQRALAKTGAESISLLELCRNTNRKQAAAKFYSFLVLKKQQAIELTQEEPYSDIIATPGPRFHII

[1] = biological target: POLR2A fragment Ile1231-Lys1350 (UniProt P24928 1231-1350); test: EMSA
Chain of POLR2A fragment Ile1231-Lys1350 (P24928 1231-1350): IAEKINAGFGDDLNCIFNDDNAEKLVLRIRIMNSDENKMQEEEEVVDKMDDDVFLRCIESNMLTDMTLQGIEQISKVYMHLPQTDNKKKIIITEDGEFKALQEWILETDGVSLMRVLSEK

B1: rs1950834-G probe (dsDNA)
DNA 1: TCGGAGTTTGGCCTTCCGGCTCTCCAACTCAGATC
DNA 2: GATCTGAGTTGGAGAGCCGGAAGGCCAAACTCCGA
binding result (RAD21): binds | binding result [1]: binds
